Source: publication PMC8041205, “TcpC inhibits toll-like receptor signaling pathway by serving as an E3 ubiquitin ligase that promotes degradation of myeloid differentiation factor 88” (PLoS Pathogens, 2021)

Tests used:
[1] = molecular target: T1, recombinant TcpC (Toll/interleukin-1 receptor domain-containing protein encoded by E. coli) (uropathogenic E. coli (UPEC), UniProt A0A0H2V8B5 1-307); experiment: SPR; 1 nM UBE2D1 cross-linked on an activated CM5 chip; 0.05-0.8 nM rTcpC in PBS flowed over; Biacore T200; conditions: both partners purified
T1 construct: TcpC, TIR domain-containing virulence factor of uropathogenic E. coli; called 'the full length rTcpC protein'; predicted TIR domain 171-304 aa; Only the vector pET42a is named; Depending on the cloning sites it may also add an N-terminal GST and S-tag; CFT073 is surmised; also called rTcpC; rTcpC prototype; source: E. coli BL21DE3 transformed with pET42a-tcpc, purified, LPS-free

[2] = molecular target: T1, recombinant TcpC (Toll/interleukin-1 …); experiment: ITC; 1 uM rTcpC in PBS in the titration pool, 0.1 uM UBE2D1 or rMyD88 in PBS in the sample pool; VP-ITC microcalorimeter; conditions: both partners purified

B1: UBE2D1 (R&D) (enzyme)
chain: not shown
notes: UBE2D1 bought from R&D; No catalogue number is printed, so the species and construct of the bought protein are unknown; source: bought: R&D
Kd [1]: 17.2 nM | Kd [2]: 763 nM
